In assay [1] the target is recombinant human CD123 protein (R&D Systems, 301-R3/CF) (human) (UniProt P26951). Nature of the assay: competition ELISA, coated antibody 7G3, 4 nM biotinylated recombinant CD123, antibody 7G3 in solution titrated.
Assay [2] shares this target. The assay can be described thus: ELISA, antibody 7G3 coated at 1 µg/ml, in house biotinylated recombinant CD123 titrated (concentration axis taken as CD123 per paragraph 750).
Assay [3] addresses cynomolgus TCR/CD3 expressed on cells (cynomolgus). Nature of the assay: cell-based or functional assay.

recombinant human CD123 protein (R&D Systems, 301-R3/CF) (human), sequence (P26951 19-305): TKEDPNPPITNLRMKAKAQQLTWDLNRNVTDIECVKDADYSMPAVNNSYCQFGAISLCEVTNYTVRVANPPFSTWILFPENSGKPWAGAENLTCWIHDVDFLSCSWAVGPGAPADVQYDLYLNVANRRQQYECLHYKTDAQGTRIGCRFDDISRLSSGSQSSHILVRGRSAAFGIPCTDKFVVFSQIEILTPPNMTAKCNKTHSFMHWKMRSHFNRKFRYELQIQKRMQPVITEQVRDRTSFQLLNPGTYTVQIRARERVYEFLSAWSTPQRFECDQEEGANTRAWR

B1: mouse monoclonal anti-CD123 antibody (clone 7G3) (antibody, from another filing, V domains shown)
VH: EVQLQQSGPELVKPGASVKMSCKASGYTFTDYYMKWVKQSHGKSLEWIGDIIPSNGATFYNQKFKGKATLTVDRSSSTAYMHLNSLTSEDSAVYYCTRSHLLRASWFAYWGQGTLVTVSA
VL: DFVMTQSPSSLTVTAGEKVTMSCKSSQSLLNSGNQKNYLTWYLQKPGQPPKLLIYWASTRESGVPDRFTGSGSGTDFTLTISSVQAEDLAVYYCQNDYSYPYTFGGGTKLEIK
With B1, the IC50 (read off the curve) in assay [1] is 2 nM. Besides, the EC50 (read off the curve) in assay [2] came out at 10 nM.

B2: T017000135 (bispecific antibody)
chain: DVQLVESGGGLVQAGGPLRLSCAASGRTFSSYVMGWFRQAPGKEREFVAAIYWSNGKTQYTDSVKGRFTISGDNAKNTVYLQMNSLNPEDTAVYYCVADKDETGFRTLPIAYDYWGQGTLVTVSSGGGGSGGGGSGGGGSGGGGSGGGGSGGGGSGGGGSEVQLVESGGGLVQPGGSLRLSCVASGDVHKINFLGWYRQAPGKEREKVAHISIGDQTDYADSAKGRFTISRDESKNMVYLQMNSLKPEDTAVYFCRAFSRIYPYDYWGQGTLVTVSSGGGGSGGGGSGGGGSGGGGSGGGGSGGGGSGGGGSEVQLVESGGGLVQAGGSLRLSCAASGITSKINDMGWYRQTPGNYREWVASITATGTTNYRDSVKGRFTISRDNAKSTVYLQMNSLKPEDTTVYYCNTFPPISNFWGQGTLVTVSSA
Take B2: in assay [3], the % lysis, redirected cyno T cell mediated killing of KG1a cells, flow cytometry was 22% and the EC50 (M), redirected cyno T cell mediated killing of KG1a cells, flow cytometry amounted to 2.4e-11 M.
